Experimental data taken from patent publication US20260193293A1, “PEPTIDES CAPABLE OF INHIBITING PROTEIN-PROTEIN INTERACTIONS AT GABAB1A SUBUNIT AND USES THEREOF” (UNIVERSITY OF COPENHAGEN, priority 2022, published 2026).
Non-standard residues stand in square brackets, D forms with d. NMeW = CN[C@@H](Cc1c[nH]c2ccccc12)C(=O)O; Cya = N[C@@H](CS(=O)(=O)O)C(=O)O; NMeT = CN[C@H](C(=O)O)[C@@H](C)O; NMeE = CN[C@@H](CCC(=O)O)C(=O)O; NMeD = CN[C@@H](CC(=O)O)C(=O)O; NMeV = CN[C@H](C(=O)O)C(C)C; NMeS = CN[C@@H](CO)C(=O)O; NMeA = CN[C@@H](C)C(=O)O; Sar = CNCC(=O)O

B1: EDDSDV(N-Me-W)WGGADTD (peptide)
peptide: Ac-EDDSDV[NMeW]WGGADTD-NH2
SMILES: CC(=O)N[C@@H](CCC(=O)O)C(=O)N[C@@H](CC(=O)O)C(=O)N[C@@H](CC(=O)O)C(=O)N[C@@H](CO)C(=O)N[C@@H](CC(=O)O)C(=O)N[C@H](C(=O)N(C)[C@@H](Cc1c[nH]c2ccccc12)C(=O)N[C@@H](Cc1c[nH]c2ccccc12)C(=O)NCC(=O)NCC(=O)N[C@@H](C)C(=O)N[C@@H](CC(=O)O)C(=O)N[C@H](C(=O)N[C@@H](CC(=O)O)C(N)=O)[C@@H](C)O)C(C)C
B2: EDD(N-Me-S)… (peptide)
peptide: Ac-EDD[NMeS]DVWWGGADTD-NH2
SMILES: CC(=O)N[C@@H](CCC(=O)O)C(=O)N[C@@H](CC(=O)O)C(=O)N[C@@H](CC(=O)O)C(=O)N(C)[C@@H](CO)C(=O)N[C@@H](CC(=O)O)C(=O)N[C@H](C(=O)N[C@@H](Cc1c[nH]c2ccccc12)C(=O)N[C@@H](Cc1c[nH]c2ccccc12)C(=O)NCC(=O)NCC(=O)N[C@@H](C)C(=O)N[C@@H](CC(=O)O)C(=O)N[C@H](C(=O)N[C@@H](CC(=O)O)C(N)=O)[C@@H](C)O)C(C)C
B3: ED(N-Me-D)… (peptide)
peptide: Ac-ED[NMeD]SDVWWGGADTD-NH2
SMILES: CC(=O)N[C@@H](CCC(=O)O)C(=O)N[C@@H](CC(=O)O)C(=O)N(C)[C@@H](CC(=O)O)C(=O)N[C@@H](CO)C(=O)N[C@@H](CC(=O)O)C(=O)N[C@H](C(=O)N[C@@H](Cc1c[nH]c2ccccc12)C(=O)N[C@@H](Cc1c[nH]c2ccccc12)C(=O)NCC(=O)NCC(=O)N[C@@H](C)C(=O)N[C@@H](CC(=O)O)C(=O)N[C@H](C(=O)N[C@@H](CC(=O)O)C(N)=O)[C@@H](C)O)C(C)C
B4: e… (peptide)
peptide: Ac-[dE]DDSDVWWGGADTD-NH2
SMILES: CC(=O)N[C@H](CCC(=O)O)C(=O)N[C@@H](CC(=O)O)C(=O)N[C@@H](CC(=O)O)C(=O)N[C@@H](CO)C(=O)N[C@@H](CC(=O)O)C(=O)N[C@H](C(=O)N[C@@H](Cc1c[nH]c2ccccc12)C(=O)N[C@@H](Cc1c[nH]c2ccccc12)C(=O)NCC(=O)NCC(=O)N[C@@H](C)C(=O)N[C@@H](CC(=O)O)C(=O)N[C@H](C(=O)N[C@@H](CC(=O)O)C(N)=O)[C@@H](C)O)C(C)C
B5: EDDSDVW(N-Me-W)GGADTD (peptide)
peptide: Ac-EDDSDVW[NMeW]GGADTD-NH2
SMILES: CC(=O)N[C@@H](CCC(=O)O)C(=O)N[C@@H](CC(=O)O)C(=O)N[C@@H](CC(=O)O)C(=O)N[C@@H](CO)C(=O)N[C@@H](CC(=O)O)C(=O)N[C@H](C(=O)N[C@@H](Cc1c[nH]c2ccccc12)C(=O)N(C)[C@@H](Cc1c[nH]c2ccccc12)C(=O)NCC(=O)NCC(=O)N[C@@H](C)C(=O)N[C@@H](CC(=O)O)C(=O)N[C@H](C(=O)N[C@@H](CC(=O)O)C(N)=O)[C@@H](C)O)C(C)C
B6: EDDSDVWW(N-Me-G)GADTD (peptide)
peptide: Ac-EDDSDVWW[Sar]GADTD-NH2
SMILES: CC(=O)N[C@@H](CCC(=O)O)C(=O)N[C@@H](CC(=O)O)C(=O)N[C@@H](CC(=O)O)C(=O)N[C@@H](CO)C(=O)N[C@@H](CC(=O)O)C(=O)N[C@H](C(=O)N[C@@H](Cc1c[nH]c2ccccc12)C(=O)N[C@@H](Cc1c[nH]c2ccccc12)C(=O)N(C)CC(=O)NCC(=O)N[C@@H](C)C(=O)N[C@@H](CC(=O)O)C(=O)N[C@H](C(=O)N[C@@H](CC(=O)O)C(N)=O)[C@@H](C)O)C(C)C
B7: (N-Me-E)… (peptide)
peptide: Ac-[NMeE]DDSDVWWGGADTD-NH2
SMILES: CC(=O)N(C)[C@@H](CCC(=O)O)C(=O)N[C@@H](CC(=O)O)C(=O)N[C@@H](CC(=O)O)C(=O)N[C@@H](CO)C(=O)N[C@@H](CC(=O)O)C(=O)N[C@H](C(=O)N[C@@H](Cc1c[nH]c2ccccc12)C(=O)N[C@@H](Cc1c[nH]c2ccccc12)C(=O)NCC(=O)NCC(=O)N[C@@H](C)C(=O)N[C@@H](CC(=O)O)C(=O)N[C@H](C(=O)N[C@@H](CC(=O)O)C(N)=O)[C@@H](C)O)C(C)C
B8: EDDSD(N-Me-V)WWGGADTD (peptide)
peptide: Ac-EDDSD[NMeV]WWGGADTD-NH2
SMILES: CC(=O)N[C@@H](CCC(=O)O)C(=O)N[C@@H](CC(=O)O)C(=O)N[C@@H](CC(=O)O)C(=O)N[C@@H](CO)C(=O)N[C@@H](CC(=O)O)C(=O)N(C)[C@H](C(=O)N[C@@H](Cc1c[nH]c2ccccc12)C(=O)N[C@@H](Cc1c[nH]c2ccccc12)C(=O)NCC(=O)NCC(=O)N[C@@H](C)C(=O)N[C@@H](CC(=O)O)C(=O)N[C@H](C(=O)N[C@@H](CC(=O)O)C(N)=O)[C@@H](C)O)C(C)C
B9: …(N-Me-A)DTD (peptide)
peptide: Ac-EDDSDVWWGG[NMeA]DTD-NH2
SMILES: CC(=O)N[C@@H](CCC(=O)O)C(=O)N[C@@H](CC(=O)O)C(=O)N[C@@H](CC(=O)O)C(=O)N[C@@H](CO)C(=O)N[C@@H](CC(=O)O)C(=O)N[C@H](C(=O)N[C@@H](Cc1c[nH]c2ccccc12)C(=O)N[C@@H](Cc1c[nH]c2ccccc12)C(=O)NCC(=O)NCC(=O)N(C)[C@@H](C)C(=O)N[C@@H](CC(=O)O)C(=O)N[C@H](C(=O)N[C@@H](CC(=O)O)C(N)=O)[C@@H](C)O)C(C)C
B10: E(N-Me-D)… (peptide)
peptide: Ac-E[NMeD]DSDVWWGGADTD-NH2
SMILES: CC(=O)N[C@@H](CCC(=O)O)C(=O)N(C)[C@@H](CC(=O)O)C(=O)N[C@@H](CC(=O)O)C(=O)N[C@@H](CO)C(=O)N[C@@H](CC(=O)O)C(=O)N[C@H](C(=O)N[C@@H](Cc1c[nH]c2ccccc12)C(=O)N[C@@H](Cc1c[nH]c2ccccc12)C(=O)NCC(=O)NCC(=O)N[C@@H](C)C(=O)N[C@@H](CC(=O)O)C(=O)N[C@H](C(=O)N[C@@H](CC(=O)O)C(N)=O)[C@@H](C)O)C(C)C
B11: EDDS(N-Me-D)… (peptide)
peptide: Ac-EDDS[NMeD]VWWGGADTD-NH2
SMILES: CC(=O)N[C@@H](CCC(=O)O)C(=O)N[C@@H](CC(=O)O)C(=O)N[C@@H](CC(=O)O)C(=O)N[C@@H](CO)C(=O)N(C)[C@@H](CC(=O)O)C(=O)N[C@H](C(=O)N[C@@H](Cc1c[nH]c2ccccc12)C(=O)N[C@@H](Cc1c[nH]c2ccccc12)C(=O)NCC(=O)NCC(=O)N[C@@H](C)C(=O)N[C@@H](CC(=O)O)C(=O)N[C@H](C(=O)N[C@@H](CC(=O)O)C(N)=O)[C@@H](C)O)C(C)C
B12: …(N-Me-D)TD (peptide)
peptide: Ac-EDDSDVWWGGA[NMeD]TD-NH2
SMILES: CC(=O)N[C@@H](CCC(=O)O)C(=O)N[C@@H](CC(=O)O)C(=O)N[C@@H](CC(=O)O)C(=O)N[C@@H](CO)C(=O)N[C@@H](CC(=O)O)C(=O)N[C@H](C(=O)N[C@@H](Cc1c[nH]c2ccccc12)C(=O)N[C@@H](Cc1c[nH]c2ccccc12)C(=O)NCC(=O)NCC(=O)N[C@@H](C)C(=O)N(C)[C@@H](CC(=O)O)C(=O)N[C@H](C(=O)N[C@@H](CC(=O)O)C(N)=O)[C@@H](C)O)C(C)C
B13: Ac-ETEFI(Cya)WGPTGDED-NH2 (AJAP-1WT mutant Ala182Cya) (peptide)
peptide: Ac-ETEFI[Cya]WGPTGDED-NH2
SMILES: CC[C@H](C)[C@H](NC(=O)[C@H](Cc1ccccc1)NC(=O)[C@H](CCC(=O)O)NC(=O)[C@@H](NC(=O)[C@H](CCC(=O)O)NC(C)=O)[C@@H](C)O)C(=O)N[C@@H](CS(=O)(=O)O)C(=O)N[C@@H](Cc1c[nH]c2ccccc12)C(=O)NCC(=O)N1CCC[C@H]1C(=O)N[C@H](C(=O)NCC(=O)N[C@@H](CC(=O)O)C(=O)N[C@@H](CCC(=O)O)C(=O)N[C@@H](CC(=O)O)C(N)=O)[C@@H](C)O
B14: …(N-Me-T)D (peptide)
peptide: Ac-EDDSDVWWGGAD[NMeT]D-NH2
SMILES: CC(=O)N[C@@H](CCC(=O)O)C(=O)N[C@@H](CC(=O)O)C(=O)N[C@@H](CC(=O)O)C(=O)N[C@@H](CO)C(=O)N[C@@H](CC(=O)O)C(=O)N[C@H](C(=O)N[C@@H](Cc1c[nH]c2ccccc12)C(=O)N[C@@H](Cc1c[nH]c2ccccc12)C(=O)NCC(=O)NCC(=O)N[C@@H](C)C(=O)N[C@@H](CC(=O)O)C(=O)N(C)[C@H](C(=O)N[C@@H](CC(=O)O)C(N)=O)[C@@H](C)O)C(C)C

What follows are binders tested against Sushi domains (SD1/2) protein of the GABAB1a (GB1a) subunit, recombinant (assay: FP competition).
Sequence of Sushi domains (SD1/2) protein of the GABAB1a (GB1a) subunit, recombinant (Q9Z0U4 29-158): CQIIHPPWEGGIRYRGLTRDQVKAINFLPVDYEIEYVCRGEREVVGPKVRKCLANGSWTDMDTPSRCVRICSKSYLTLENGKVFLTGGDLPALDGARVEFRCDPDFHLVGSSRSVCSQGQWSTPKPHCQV

Binder	Ki	fold improved affinity relative to the wild type (AJAP-1WT)
B1	85600 nM	–
Ac-EDDSDVWWG[dA]ADTD-NH2 […aADTD]	1210 nM	–
B2	1670 nM	–
Ac-EDDS[dD]VWWGGADTD-NH2 [EDDSd…]	1630 nM	–
Ac-ETEFIDWGPTGDED-NH2 [peptide 26 (Ac-…-NH2, AJAP-1WT mutant A182D)]	–	3 fold
B3	671 nM	–
B4	483 nM	–
Ac-ED[dD]SDVWWGGADTD-NH2 [EDd…]	736 nM	–
Ac-EDD[dS]DVWWGGADTD-NH2 [EDDs…]	752 nM	–
B5	1380 nM	–
B6	18900 nM	–
B7	670 nM	–
B8	12300 nM	–
Ac-EDDSDVWWGGAD[dT]D-NH2 […tD]	469 nM	–
Ac-E[dD]DSDVWWGGADTD-NH2 [Ed…]	567 nM	–
B9	704 nM	–
Ac-EDDSDVWW[dA]GADTD-NH2 [EDDSDVWWaGADTD]	8700 nM	–
Ac-EDDSDVWWGGA[dD]TD-NH2 […dTD]	637 nM	–
Ac-EDDSDVWWGGADT[dD]-NH2 […d]	529 nM	–
B10	655 nM	–
Ac-EDDSDVWWGGADAD-NH2	480 nM	–
B11	3760 nM	–
Ac-EDDSDVWWGG[dA]DTD-NH2 […aDTD]	755 nM	–
B12	403 nM	–
B13	11.8 nM	–
Ac-EDDSDVWWGGADTA-NH2	786 nM	–
B14	503 nM	–
